This is an account of results in patent publication US20250361314A1 (SHANGHAI HUAOTA BIOPHARMACEUTICAL, published 2025).

Test [1] deals with T1, Human CD73 on CHOK1-huCD73-3F4 cells overexpressing CD73 (human, UniProt P21589 27-549).
T1 sequence (looked up): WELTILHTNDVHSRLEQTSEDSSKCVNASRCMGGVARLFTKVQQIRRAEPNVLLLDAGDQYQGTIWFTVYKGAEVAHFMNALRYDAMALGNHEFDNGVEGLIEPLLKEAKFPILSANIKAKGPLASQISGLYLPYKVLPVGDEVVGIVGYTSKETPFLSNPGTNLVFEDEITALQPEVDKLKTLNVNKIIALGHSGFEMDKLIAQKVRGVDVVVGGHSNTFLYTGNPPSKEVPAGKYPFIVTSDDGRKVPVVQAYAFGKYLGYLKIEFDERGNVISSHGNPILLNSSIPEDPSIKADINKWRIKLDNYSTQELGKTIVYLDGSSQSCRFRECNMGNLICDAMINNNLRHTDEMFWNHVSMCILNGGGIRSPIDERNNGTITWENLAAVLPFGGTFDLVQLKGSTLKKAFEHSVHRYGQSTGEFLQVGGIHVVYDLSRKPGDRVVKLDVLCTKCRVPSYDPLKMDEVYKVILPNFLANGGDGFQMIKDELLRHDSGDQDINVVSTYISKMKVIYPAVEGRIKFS
Put plainly: cell-based or functional assay.

Another test has as its target T2, Mouse CD39 antigen (mouse, UniProt P55772 38-478).
T2 construct: Antigen used as analyte in SPR
T2 sequence (looked up): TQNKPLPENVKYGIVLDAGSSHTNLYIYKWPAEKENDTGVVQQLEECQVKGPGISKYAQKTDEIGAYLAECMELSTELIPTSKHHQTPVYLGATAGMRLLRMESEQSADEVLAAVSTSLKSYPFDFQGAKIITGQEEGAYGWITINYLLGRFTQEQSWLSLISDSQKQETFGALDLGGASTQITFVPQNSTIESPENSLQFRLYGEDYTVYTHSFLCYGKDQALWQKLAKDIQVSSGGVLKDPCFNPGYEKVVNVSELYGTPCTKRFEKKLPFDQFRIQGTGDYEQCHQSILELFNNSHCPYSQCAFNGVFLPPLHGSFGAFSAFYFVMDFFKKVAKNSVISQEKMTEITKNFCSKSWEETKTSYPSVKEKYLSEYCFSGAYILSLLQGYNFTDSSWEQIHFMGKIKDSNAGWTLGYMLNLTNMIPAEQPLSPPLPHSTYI
Put plainly: SPR (Biacore 8K), antibody captured on anti-human capture CM5 chip, antigen as analyte. How it is done:
The experimental method is as follows:
An Anti-Human Capture-CM5 chip (GE, #BR-1005-30) was prepared using coupling methods of a Human Antibody Capture Kit (GE, #BR-1008-39) and an amino coupling kit (GE, BR-1000-50). The chip was equilibrated at room temperature for about 20-30 min and loaded into a Biacore 8K instrument. The antigen and antibody were diluted to an experimental working concentration using an equilibration buffer. The antigen was diluted with an equilibrium buffer to 50 nM, and then diluted three-fold for seven concentration gradients, and two zero concentrations (i.e., the equilibrium buffer) and one repeat concentration (typically the lowest concentration repeat) were set. Experimental analysis was performed on 10 antigen concentrations (2 zero concentrations, 7 gradient concentrations, and 1 repeated concentration) in a cyclic manner according to an order of antibody, antigen, and regeneration. The antigen injection flow rate was 30 μL/min, the binding time was 120 s, and the dissociation time was 600 s. Following the analysis, the data was analyzed using the corresponding analysis program to confirm that there was no obvious reference binding. Using Kinetics and a 1:1 binding model, the data was fit to obtain the kinetic related parameters Ka, Kd, and KD values of the bispecific antibodies.

B1: CD39/CD73 bispecific antibody 700035 (CD39-VHH-CD73-IgG) (bispecific antibody)
heavy: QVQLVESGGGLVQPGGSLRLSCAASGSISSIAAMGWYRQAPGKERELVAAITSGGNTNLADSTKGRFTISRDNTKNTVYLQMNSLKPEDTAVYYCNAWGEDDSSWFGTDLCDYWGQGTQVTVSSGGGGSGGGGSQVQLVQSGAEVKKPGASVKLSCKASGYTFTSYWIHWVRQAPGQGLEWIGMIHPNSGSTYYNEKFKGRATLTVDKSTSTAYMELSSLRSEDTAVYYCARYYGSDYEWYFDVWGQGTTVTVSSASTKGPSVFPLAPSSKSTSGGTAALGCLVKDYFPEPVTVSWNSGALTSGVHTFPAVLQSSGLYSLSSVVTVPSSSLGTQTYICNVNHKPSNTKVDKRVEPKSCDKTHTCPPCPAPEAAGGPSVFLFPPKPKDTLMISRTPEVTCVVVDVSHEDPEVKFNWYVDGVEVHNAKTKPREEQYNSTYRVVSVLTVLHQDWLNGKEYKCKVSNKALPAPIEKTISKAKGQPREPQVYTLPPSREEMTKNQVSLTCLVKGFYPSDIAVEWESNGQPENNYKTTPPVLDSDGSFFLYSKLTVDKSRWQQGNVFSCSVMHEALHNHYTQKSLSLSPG
light: DIQMTQSPSSMSASVGDRVTITCKASQNVRTAVVWYQQKPGKAPKALIYLASNRHTGVPDRFSGSGSGTDFTLTISSLQPEDFATYFCLQHWNYPYTFGQGTKLEIKRTVAAPSVFIFPPSDEQLKSGTASVVCLLNNFYPREAKVQWKVDNALQSGNSQESVTEQDSKDSTYSLSSTLTLSKADYEKHKVYACEVTHQGLSSPVTKSFNRGEC
B1: the “EC50 (µg/mL), inhibition of enzyme activity of membrane CD73 on CHOK1-huCD73-3F4 cells (CellTiter Glo)” value in test [1] was determined as 0.615 µg/mL. Moreover, the binding result in the test with Mouse CD39 antigen is recorded as “no binding (tested: 50 nM (highest antigen concentration))”.
